Source: patent publication US20030180744A1 (published 2003)

Legend:
[1] = biological target: T1, hKGF receptor present in the PC-3 plasma membrane extracts (UniProt P21802-3 22-822, limits assumed); test: native gel electrophoretic mobility shift of 125I-hKGF by PC-3 plasma membrane extract
T1 construct: A crude detergent extract, not a purified protein; Two complexes (C1, C2) were seen; also called component found in the PC-3 membrane extracts
Description: (§1) For electrophoretic mobility shift gels, about 3×10⁷ PC-3 cells were gently spun and washed with PBS and then lysed by mixing with equal volume of lysis buffer containing 40 mM Hepes, pH 7.4, 150 mM NaCl, 20% glycerol, 2% triton X-100, 0.1% sodium azide, 3 mM MgCl₂, 3 mM EGTA, 2 μM aprotinin, 2 μM leupeptin, 2 mM PMSF, and 400 μM sodium orthovanadate. Following 15 min incubation on ice the extract was spun at 11,000 g at 4° C. for 30 min to remove debris and nuclei and the supernatant was aliquoted and stored at −70° C. […] Following a 10 min incubation at room temperature, 6× loading dye was added to achieve 1× concentration, and the samples were loaded onto a 5% or 10% native TBE polyacrylamide gel. The gel was prerun at room temperature at 100 Volts. Following loading, the gel was run at 200 Volts for 5 min and then at 100 Volts for 30-60 min at room temperature. The radioactive bands were then visualized by autoradiography.

[2] = biological target: T1, hKGF receptor present in the PC-3 …; test: gel shift competition: unlabeled hKGF against 125I-hKGF with PC-3 plasma membrane extract
Description: as §1

T1 sequence (P21802 other isoform, or with tags, fused parts or gaps limits assumed): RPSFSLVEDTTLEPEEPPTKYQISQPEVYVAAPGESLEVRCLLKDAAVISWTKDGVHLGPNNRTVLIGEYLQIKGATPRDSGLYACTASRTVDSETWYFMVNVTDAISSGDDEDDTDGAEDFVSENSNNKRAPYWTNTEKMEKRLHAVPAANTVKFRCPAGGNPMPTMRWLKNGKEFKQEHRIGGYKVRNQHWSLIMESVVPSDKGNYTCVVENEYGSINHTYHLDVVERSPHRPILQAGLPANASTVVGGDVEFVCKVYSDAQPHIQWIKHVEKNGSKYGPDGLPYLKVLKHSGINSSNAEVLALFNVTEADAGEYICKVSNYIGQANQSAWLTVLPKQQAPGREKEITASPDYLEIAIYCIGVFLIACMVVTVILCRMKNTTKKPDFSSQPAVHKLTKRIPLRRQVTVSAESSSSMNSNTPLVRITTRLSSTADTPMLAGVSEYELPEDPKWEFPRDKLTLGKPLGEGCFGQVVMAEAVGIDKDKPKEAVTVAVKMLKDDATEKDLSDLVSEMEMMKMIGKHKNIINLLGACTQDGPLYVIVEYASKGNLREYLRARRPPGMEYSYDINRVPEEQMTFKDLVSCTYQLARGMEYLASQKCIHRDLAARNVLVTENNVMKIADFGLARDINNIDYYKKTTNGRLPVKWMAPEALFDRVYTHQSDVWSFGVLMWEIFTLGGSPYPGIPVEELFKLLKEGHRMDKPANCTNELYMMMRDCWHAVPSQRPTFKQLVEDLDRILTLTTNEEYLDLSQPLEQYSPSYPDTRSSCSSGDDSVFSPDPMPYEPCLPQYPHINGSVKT

- Kd [1]: ~8 nM
- IC50 [2]: 70 nM
B1: Recombinant human Keratinocyte Growth Factor (hKGF) (ligand, UniProt P21781 32-194, looked up)
chain: CNDMTPEQMATNVNCSSPERHTRSYDYMEGGDIRVRRLFCRTQWYLRIDKRGKVKGTQEMKNNYNIMEIRTVAVGIVAIKGVESEFYLAMNKEGKLYAKKECNEDCNFKELILENHYNTYASAKWTHNGGEMFVALNQKGIPVRGKKTKKEQKTAHFLPMAIT
notes: also called FGF-7
